The values that follow come from paper doi:10.1101/2023.08.31.555674, “New structural features of the APC/C from high-resolution cryo-EM structures of apo-APC/C and APC/C^CDH1:EMI1 complexes” (bioRxiv, 2023).

Experiment [1] addresses T1, APC8 subunit of the anaphase-promoting complex/cyclosome (human, UniProt Q9UJX2 1-597).
T1 construct: APC8, human, subunit of recombinant APC/C; Stood assembled in the recombinant APC/C; the contacts are told of the copy APC8(B); also called APC8(B); source: recombinant human APC/C, modified MultiBac system, as described previously [51,52]; purified within the APC/C
The experiment can be described thus: cryo-EM structure; APC/C^CDH1:EMI1 ternary complex, 2.9 Å; complex and grids prepared as described previously [19]; Titan Krios, Falcon 3; APC/C subunits co-expressed, complex purified. To be noted: both partners purified.

Experiment [2] has as its target T2, APC1 subunit of the anaphase-promoting complex/cyclosome (human, UniProt Q9H1A4 1-1944).
T2 construct: APC1, human, subunit of recombinant APC/C; Stood assembled in the unphosphorylated recombinant APC/C; source: recombinant human APC/C, modified MultiBac system, as described previously [51,52]; purified within the APC/C
Described as above. The note with it: both partners purified.

B1: CDH1 (APC/C coactivator subunit) (natural protein, human, UniProt Q9UM11-2 1-493, looked up)
chain: MDQDYERRLLRQIVIQNENTMPRVTEMRRTLTPASSPVSSPSKHGDRFIPSRAGANWSVNFHRINENEKSPSQNRKAKDATSDNGKDGLAYSALLKNELLGAGIEKVQDPQTEDRRLQPSTPEKKGLFTYSLSTKRSSPDDGNDVSPYSLSPVSNKSQKLLRSPRKPTRKISKIPFKVLDAPELQDDFYLNLVDWSSLNVLSVGLGTCVYLWSACTSQVTRLCDLSVEGDSVTSVGWSERGNLVAVGTHKGFVQIWDAAAGKKLSMLEGHTARVGALAWNAEQLSSGSRDRMILQRDIRTPPLQSERRLQGHRQEVCGLKWSTDHQLLASGGNDNKLLVWNHSSLSPVQQYTEHLAAVKAIAWSPHQHGLLASGGGTADRCIRFWNTLTGQPLQCIDTGSQVCNLAWSKHANELVSTHGYSQNQILVWKYPSLTQVAKLTGHSYRVLYLAMSPDGEAIVTGAGDETLRFWNVFSKTRSTKESVSVLNLFTRIR
notes: CDH1, human; the last residue printed for CDH1 is 493 (chimera: residues 24 to 493 of CDH1), so the isoform of 493 residues is meant; the tag is told in the methods for CDH1 in general; source: expressed and purified as described previously [19,23,27]
B1: the binding result in experiment [1] and in experiment [2] was “binds” each time.
